Laboratory results reported in patent US20180177842A1 (CANIMGUIDE THERAPEUTICS, published 2018).

T1: P3028 (VFDEFKPLVEEPQNLIK, SEQ ID NO: 185), His-tagged (human)
T1 construct: Synthetic fragment of human serum albumin (positions 397-413); used in solution as His-tagged peptide PGE73; also called PGE73; not shown: His-tag
T1 peptide: VFDEFKPLVEEPQNLIK


Target: T1, P3028 (VFDEFKPLVEEPQNLIK, SEQ ID NO: …)
Experiment: PEPSCAN ELISA; peptide on chip, His-P3028 added;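 note: peroxidase color development with ABTS and H2O2 substrate, OD405 imaged by CCD camera with image processing and taken as raw values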
Description: After washing, the peroxidase substrate 2,2′-azine-di-3-ethylbenzthiazoline sulfonate (ABTS) and 2 μL of 3% H2O2 were added. The binding capacity of the mAb was measured as a color development at 405 nm (optical density, OD405). The color development was quantified with a charge-coupled device (CCD)—camera and an image processing system.
The OD405-values obtained by a CCD-camera was considered as raw data values (“rampo values,” “rampo units,” or “rampo scores”). […] First the CCD-camera made a picture of the card before peroxidase coloring and then again a picture after the peroxidase coloring. […] These values were copied into an excel file and labeled as a raw data file. […] Sometimes a well can contain an air-bubble resulting in a false-positive value. If manual inspection of the cards detect an air-bubble the value are set to 0 for well.
For KKLDTFFVKLFLFTER [KKLDTFFVKLFLFTER (SEQ ID NO: 522)], the “RAMPO Score” value was 250 rampo units.
With KKLDTFFVKLHLFTER [KKLDTFFVKLHLFTER (SEQ ID NO: 345)] the “RAMPO Score” value was 535 rampo units.
With KKLDTFFVKLSLFQER [KKLDTFFVKLSLFQER (SEQ ID NO: 493)] the “RAMPO Score” value was 301 rampo units.
KKLDTFFVKLMLFTER [KKLDTFFVKLMLFTER (SEQ ID NO: 346)] was tested, and the “RAMPO Score” value was 744 rampo units.
For KKLDTFFVKLSLFTEV [KKLDTFFVKLSLFTEV (SEQ ID NO: 521)], the “RAMPO Score” value was 254 rampo units.
With KKLDTFFVKLSLFTEN [KKLDTFFVKLSLFTEN (SEQ ID NO: 390)] the “RAMPO Score” value was 311 rampo units.
With KKLDTFFVKLSLFTEK [KKLDTFFVKLSLFTEK (SEQ ID NO: 389)] the “RAMPO Score” value was 291 rampo units.
For KKLDTFFVKLSLFLER [KKLDTFFVKLSLFLER (SEQ ID NO: 380)], the “RAMPO Score” value was 360 rampo units.
With KKLDTFFVKLSLFWER [KKLDTFFVKLSLFWER (SEQ ID NO: 386)] the “RAMPO Score” value was 374 rampo units.
KKLDTFFVKLSLFTEF [KKLDTFFVKLSLFTEF (SEQ ID NO: 388)] was tested, and the “RAMPO Score” value was 297 rampo units.
With KKLDTFFVKLSLPTER [KKLDTFFVKLSLPTER (SEQ ID NO: 369)] the “RAMPO Score” value was 696 rampo units.
For KKLDTFFVKLSLFHER [KKLDTFFVKLSLFHER (SEQ ID NO: 378)], the “RAMPO Score” value was 463 rampo units.
KKLDTFFVKLSLFTEM [KKLDTFFVKLSLFTEM (SEQ ID NO: 529)] was tested, and the “RAMPO Score” value was 238 rampo units.
KKLDTFFVKLSLSTER [KKLDTFFVKLSLSTER (SEQ ID NO: 372)] was tested, and the “RAMPO Score” value was 635 rampo units.
With KKLDTFFVKLSLFTQR [KKLDTFFVKLSLFTQR (SEQ ID NO: 450)] the “RAMPO Score” value was 344 rampo units.
KKLDTFFVKLSQFTER [KKLDTFFVKLSQFTER (SEQ ID NO: 355)] was tested, and the “RAMPO Score” value was 651 rampo units.
For KKLDTFFVKLSLFPER [KKLDTFFVKLSLFPER (SEQ ID NO: 383)], the “RAMPO Score” value was 551 rampo units.
With KKLDTFFVKLSAFTER [KKLDTFFVKLSAFTER (SEQ ID NO: 350)] the “RAMPO Score” value was 462 rampo units.
For KKLDTFFVKLSLFFER [KKLDTFFVKLSLFFER (SEQ ID NO: 376)], the “RAMPO Score” value was 348 rampo units.
In the case of KKLDTFFVKLSLFYER [KKLDTFFVKLSLFYER (SEQ ID NO: 514)], the “RAMPO Score” value is reported as 270 rampo units.
For KKLDTFFVKLSLFTRR [KKLDTFFVKLSLFTRR (SEQ ID NO: 531)], the “RAMPO Score” value was 237 rampo units.
With KKLDTFFVKLSLVTER [KKLDTFFVKLSLVTER (SEQ ID NO: 374)] the “RAMPO Score” value was 446 rampo units.
For KKLDTFFVKLSLRTER [KKLDTFFVKLSLRTER (SEQ ID NO: 371)], the “RAMPO Score” value was 502 rampo units.
In the case of KKLDTFFVKLSLFTEY [KKLDTFFVKLSLFTEY (SEQ ID NO: 393)], the “RAMPO Score” value is reported as 311 rampo units.
With KKLDTFFVKLSLFVER [KKLDTFFVKLSLFVER (SEQ ID NO: 385)] the “RAMPO Score” value was 380 rampo units.
KKLDTFFVKLSFFTER [KKLDTFFVKLSFFTER (SEQ ID NO: 422)] was tested, and the “RAMPO Score” value was 389 rampo units.
KKLDTFFVKLSLFAER [KKLDTFFVKLSLFAER (SEQ ID NO: 489)] was tested, and the “RAMPO Score” value was 305 rampo units.
KKLDTFFVKLSLFRER [KKLDTFFVKLSLFRER (SEQ ID NO: 33)] was tested, and the “RAMPO Score” value was 264 rampo units.
With KKLDTFFVKLGLFTER [KKLDTFFVKLGLFTER (SEQ ID NO: 99)] the “RAMPO Score” value was 288 rampo units.
With KKLDTFFVKLSLFTET [KKLDTFFVKLSLFTET (SEQ ID NO: 392)] the “RAMPO Score” value was 292 rampo units.
For KKLDTFFVKLSNFTER [KKLDTFFVKLSNFTER (SEQ ID NO: 354)], the “RAMPO Score” value was 462 rampo units.
In the case of KKLDTFFVKLSCFTER [KKLDTFFVKLSCFTER (SEQ ID NO: 455)], the “RAMPO Score” value is reported as 342 rampo units.
With KKLDTFFVKLSKFTER [KKLDTFFVKLSKFTER (SEQ ID NO: 438)] the “RAMPO Score” value was 355 rampo units.
For KKLDTFFVKLSLITER [KKLDTFFVKLSLITER (SEQ ID NO: 365)], the “RAMPO Score” value was 468 rampo units.
KKLDTFFVKLSLTTER [KKLDTFFVKLSLTTER (SEQ ID NO: 373)] was tested, and the “RAMPO Score” value was 494 rampo units.
In the case of KKLDTFFVKLSLMTER [KKLDTFFVKLSLMTER (SEQ ID NO: 367)], the “RAMPO Score” value is reported as 1190 rampo units.
In the case of KKLDTFFVKLSLQTER [KKLDTFFVKLSLQTER (SEQ ID NO: 370)], the “RAMPO Score” value is reported as 1140 rampo units.
With KKLDTFFVKLILFTER [KKLDTFFVKLILFTER (SEQ ID NO: 505)] the “RAMPO Score” value was 289 rampo units.
For KKLDTFFVKLSLFKER [KKLDTFFVKLSLFKER (SEQ ID NO: 517)], the “RAMPO Score” value was 259 rampo units.
In the case of KKLDTFFVKLSLNTER [KKLDTFFVKLSLNTER (SEQ ID NO: 368)], the “RAMPO Score” value is reported as 862 rampo units.
With KKLDTFFVKLSLFTEH [KKLDTFFVKLSLFTEH (SEQ ID NO: 528)] the “RAMPO Score” value was 239 rampo units.
With KKLDTFFVKLSLFTDR [KKLDTFFVKLSLFTDR (SEQ ID NO: 387)] the “RAMPO Score” value was 404 rampo units.
With KKLDTFFVKLSPFTER [KKLDTFFVKLSPFTER (SEQ ID NO: 497)] the “RAMPO Score” value was 297 rampo units.
KKLDTFFVKLSLFTLR [KKLDTFFVKLSLFTLR (SEQ ID NO: 525)] was tested, and the “RAMPO Score” value was 246 rampo units.
In the case of KKLDTFFVKLSLHTER [KKLDTFFVKLSLHTER (SEQ ID NO: 364)], the “RAMPO Score” value is reported as 1050 rampo units.
For KKLDTFFVKLSLFGER [KKLDTFFVKLSLFGER (SEQ ID NO: 377)], the “RAMPO Score” value was 343 rampo units.
KKLDTFFVKLSLWTER [KKLDTFFVKLSLWTER (SEQ ID NO: 375)] was tested, and the “RAMPO Score” value was 430 rampo units.
With KKLDTFFVKLSLATER [KKLDTFFVKLSLATER (SEQ ID NO: 361)] the “RAMPO Score” value was 525 rampo units.
With KKLDTFFVKLSLFTMR [KKLDTFFVKLSLFTMR (SEQ ID NO: 524)] the “RAMPO Score” value was 247 rampo units.
In the case of KKLDTFFVKLSLFTKR [KKLDTFFVKLSLFTKR (SEQ ID NO: 471)], the “RAMPO Score” value is reported as 324 rampo units.
With KKLDTFFVKLQLFTER [KKLDTFFVKLQLFTER (SEQ ID NO: 348)] the “RAMPO Score” value was 768 rampo units.
For KKLDTFFVKLSGFTER [KKLDTFFVKLSGFTER (SEQ ID NO: 431)], the “RAMPO Score” value was 370 rampo units.
KKLDTFFVKLSLFNER [KKLDTFFVKLSLFNER (SEQ ID NO: 382)] was tested, and the “RAMPO Score” value was 599 rampo units.
With KKLDTFFVKLKLFTER [KKLDTFFVKLKLFTER (SEQ ID NO: 473)] the “RAMPO Score” value was 323 rampo units.
KKLDTFFVKLSLFIER [KKLDTFFVKLSLFIER (SEQ ID NO: 379)] was tested, and the “RAMPO Score” value was 375 rampo units.
In the case of KKLDTFFVKLSHFTER [KKLDTFFVKLSHFTER (SEQ ID NO: 351)], the “RAMPO Score” value is reported as 460 rampo units.
For KKLDTFFVKLPLFTER [KKLDTFFVKLPLFTER (SEQ ID NO: 470)], the “RAMPO Score” value was 328 rampo units.
In the case of KKLDTFFVKLSMFTER [KKLDTFFVKLSMFTER (SEQ ID NO: 353)], the “RAMPO Score” value is reported as 499 rampo units.
For KKLDTFFVKLSLFCER [KKLDTFFVKLSLFCER (SEQ ID NO: 520)], the “RAMPO Score” value was 254 rampo units.
In the case of KKLDTFFVKLNLFTER [KKLDTFFVKLNLFTER (SEQ ID NO: 347)], the “RAMPO Score” value is reported as 451 rampo units.
For KKLDTFFVKLSLGTER [KKLDTFFVKLSLGTER (SEQ ID NO: 363)], the “RAMPO Score” value was 531 rampo units.
For KKLDTFFVKLSLLTER [KKLDTFFVKLSLLTER (SEQ ID NO: 366)], the “RAMPO Score” value was 448 rampo units.
With KKLDTFFVKLSLFSER [KKLDTFFVKLSLFSER (SEQ ID NO: 384)] the “RAMPO Score” value was 369 rampo units.
KKLDTFFVKLSIFTER [KKLDTFFVKLSIFTER (SEQ ID NO: 352)] was tested, and the “RAMPO Score” value was 456 rampo units.
With KKLDTFFVKLSLCTER [KKLDTFFVKLSLCTER (SEQ ID NO: 362)] the “RAMPO Score” value was 400 rampo units.
KKLDTFFVKLSLFTHR [KKLDTFFVKLSLFTHR (SEQ ID NO: 478)] was tested, and the “RAMPO Score” value was 318 rampo units.
In the case of KKLDTFFVKLSLFMER [KKLDTFFVKLSLFMER (SEQ ID NO: 381)], the “RAMPO Score” value is reported as 501 rampo units.
In the case of KKLDTFFVKLSLFTPR [KKLDTFFVKLSLFTPR (SEQ ID NO: 439)], the “RAMPO Score” value is reported as 351 rampo units.
With KKLDTFFVKLRLFTER [KKLDTFFVKLRLFTER (SEQ ID NO: 464)] the “RAMPO Score” value was 333 rampo units.
KKLDTFFVKLSLFTYR [KKLDTFFVKLSLFTYR (SEQ ID NO: 459)] was tested, and the “RAMPO Score” value was 340 rampo units.
For KKLDTFFVKLSLYTER [KKLDTFFVKLSLYTER (SEQ ID NO: 503)], the “RAMPO Score” value was 291 rampo units.
